Laboratory results from article PMC5040590, “A model for regulation by SynGAP-α1 of binding of synaptic proteins to PDZ-domain 'Slots' in the postsynaptic density” (eLife, 2016).

Molecular target: CaM-Sepharose 4B (calmodulin on Sepharose resin) (UniProt P62157 1-149)
Test: pull-down; equilibrium binding of purified synGAP (1-500 nM, 300 µl) to 50 µl CaM-Sepharose 4B, 60 min; 50 mM Tris pH 7.5, 200 mM NaCl, 5 mM TCEP, 2 mM CaCl2; bound protein by quantitative immunoblot; hyperbolic fit
Details: both partners purified

B1: sr-synGAP (residues 103-725) (domain or fragment)
chain: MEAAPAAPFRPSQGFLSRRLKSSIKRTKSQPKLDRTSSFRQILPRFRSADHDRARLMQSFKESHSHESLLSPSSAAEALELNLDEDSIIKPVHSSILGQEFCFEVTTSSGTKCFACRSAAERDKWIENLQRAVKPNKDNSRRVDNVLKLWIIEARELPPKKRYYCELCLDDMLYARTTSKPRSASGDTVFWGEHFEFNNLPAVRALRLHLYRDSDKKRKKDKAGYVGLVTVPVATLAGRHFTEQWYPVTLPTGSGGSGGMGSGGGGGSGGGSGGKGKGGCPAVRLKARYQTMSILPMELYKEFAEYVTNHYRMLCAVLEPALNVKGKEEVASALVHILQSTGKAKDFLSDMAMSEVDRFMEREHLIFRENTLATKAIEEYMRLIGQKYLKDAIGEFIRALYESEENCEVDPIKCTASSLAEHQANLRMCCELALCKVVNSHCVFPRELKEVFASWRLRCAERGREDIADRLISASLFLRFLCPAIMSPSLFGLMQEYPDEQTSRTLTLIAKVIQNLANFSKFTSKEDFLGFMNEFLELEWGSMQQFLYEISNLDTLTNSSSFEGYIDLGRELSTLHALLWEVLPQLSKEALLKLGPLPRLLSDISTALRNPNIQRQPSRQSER
- Kd: 210 ± 30 nM
